In patent publication US20240254238A1 (OXFORD BIOTHERAPEUTICS, published 2024):

B1: DM4-conjugated anti-LY75 monoclonal antibody 8A3 (antibody, V domains shown)
VH: EVQLVESGGGLIQPGGSLRLSCAASGFTVSSNYMSWVRQAPGKGLEWVSVIYSGGSTYYTDSVKGRFTISRDNSKNTLYLQMNSLRAEDTAVYYCARDKSGWNGFDYWGQGTLVTVSS
VL: DVQMTQSPSSLSASVGDRVTITCRASQSVSTYLHWYQQKPGKAPKLLIYAASSLQGGLPSRFSGSGSGTDFTLTISSLQPEDFATYYCQQSSSTPLTFGGGTKVEITR
modifications: antibody conjugated to the maytansinoid DM4; attachment residues not stated
B2: DM4-conjugated anti-LY75 monoclonal antibody 16A5 (CD205_A1) (antibody, V domains shown)
VH: EVQLVESGGGLVKPGGSLRLSCAASGFTYSNAWMSWVRQAPGKGLEWVGRIKSKTDGGTTDYAAPVQGRFTISRDDSKNTLYLQMNSLKTEDTAVYYCTIFGVVSFDYWGQGTLVTVSS
VL: DVQMTQSPSSLSASVGDRVTITCRASQSISDYLSWYQQRPGKAPNLLIYAASNLKTGVPSRFSGSGSGTDFTLTISTLQPEDFATYYCQQSYRSPWTFGQGTKVEIKR
modifications: antibody conjugated to the maytansinoid DM4; attachment residues not stated

Target: human CD205 (human, UniProt O60449 28-1722)
Assay: cell-based or functional assay

Chain of human CD205 (O60449 28-1722 limits assumed): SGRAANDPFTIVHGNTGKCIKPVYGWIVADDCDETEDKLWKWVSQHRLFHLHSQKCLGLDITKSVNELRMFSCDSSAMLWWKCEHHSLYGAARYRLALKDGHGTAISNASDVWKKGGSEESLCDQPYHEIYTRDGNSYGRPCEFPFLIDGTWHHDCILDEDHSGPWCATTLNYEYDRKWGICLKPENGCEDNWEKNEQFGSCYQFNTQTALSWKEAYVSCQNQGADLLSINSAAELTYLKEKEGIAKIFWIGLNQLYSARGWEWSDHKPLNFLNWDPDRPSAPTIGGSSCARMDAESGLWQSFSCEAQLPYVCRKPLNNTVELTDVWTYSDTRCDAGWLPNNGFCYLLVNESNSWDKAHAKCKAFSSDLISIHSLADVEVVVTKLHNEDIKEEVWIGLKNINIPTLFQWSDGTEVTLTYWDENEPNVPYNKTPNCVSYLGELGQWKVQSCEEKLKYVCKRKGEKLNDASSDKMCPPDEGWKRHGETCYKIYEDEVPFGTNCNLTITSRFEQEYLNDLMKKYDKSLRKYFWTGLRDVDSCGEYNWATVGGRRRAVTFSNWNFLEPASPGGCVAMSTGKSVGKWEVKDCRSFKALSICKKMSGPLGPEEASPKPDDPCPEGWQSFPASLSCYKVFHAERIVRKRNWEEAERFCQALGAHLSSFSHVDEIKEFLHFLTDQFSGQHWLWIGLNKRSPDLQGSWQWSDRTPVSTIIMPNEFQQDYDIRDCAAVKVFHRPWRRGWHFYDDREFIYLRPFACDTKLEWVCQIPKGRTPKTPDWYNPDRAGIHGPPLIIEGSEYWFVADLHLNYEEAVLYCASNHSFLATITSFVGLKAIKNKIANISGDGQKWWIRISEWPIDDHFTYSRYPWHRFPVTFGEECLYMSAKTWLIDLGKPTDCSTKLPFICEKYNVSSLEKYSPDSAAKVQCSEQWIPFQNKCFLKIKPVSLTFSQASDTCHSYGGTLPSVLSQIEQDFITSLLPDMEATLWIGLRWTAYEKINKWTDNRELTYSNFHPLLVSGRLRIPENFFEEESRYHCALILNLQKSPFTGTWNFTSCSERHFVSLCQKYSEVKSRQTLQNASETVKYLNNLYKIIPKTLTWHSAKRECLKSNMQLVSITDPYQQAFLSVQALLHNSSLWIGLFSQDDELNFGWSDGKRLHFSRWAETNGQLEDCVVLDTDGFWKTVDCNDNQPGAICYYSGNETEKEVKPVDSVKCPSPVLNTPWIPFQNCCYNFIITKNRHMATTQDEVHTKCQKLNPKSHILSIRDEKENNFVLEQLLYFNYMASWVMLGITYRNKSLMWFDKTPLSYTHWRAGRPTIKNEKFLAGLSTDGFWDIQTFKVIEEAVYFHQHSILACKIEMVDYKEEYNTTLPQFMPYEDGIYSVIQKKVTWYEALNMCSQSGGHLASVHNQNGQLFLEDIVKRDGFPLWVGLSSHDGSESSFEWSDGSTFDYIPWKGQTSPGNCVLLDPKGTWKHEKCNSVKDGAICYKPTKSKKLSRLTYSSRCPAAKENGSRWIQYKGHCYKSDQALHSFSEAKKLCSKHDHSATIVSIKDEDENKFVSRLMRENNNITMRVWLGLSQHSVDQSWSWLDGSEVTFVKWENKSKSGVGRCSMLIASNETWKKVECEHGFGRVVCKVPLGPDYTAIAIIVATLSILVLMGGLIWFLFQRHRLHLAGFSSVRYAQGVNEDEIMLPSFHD

Binder | EC50 (pM) of % Specific Death, Cell-Titer Glo, Raji cells, 96 hours | EC50 (pM) of % Specific Death, Cell-Titer Glo, THP1 cells, 96 hours
B1 | 1010 pM | 98.8 pM
B2 | 728 pM | 37.5 pM
